Measurements taken from article PMC12828022 (Nature Communications, 2025).

T1: IL-17RA residues 361-866 (SEFIR domain and SEFEX, as part of the IL-17RB-RA fusion) (human, UniProt Q96F46-1 361-866)
T1 sequence: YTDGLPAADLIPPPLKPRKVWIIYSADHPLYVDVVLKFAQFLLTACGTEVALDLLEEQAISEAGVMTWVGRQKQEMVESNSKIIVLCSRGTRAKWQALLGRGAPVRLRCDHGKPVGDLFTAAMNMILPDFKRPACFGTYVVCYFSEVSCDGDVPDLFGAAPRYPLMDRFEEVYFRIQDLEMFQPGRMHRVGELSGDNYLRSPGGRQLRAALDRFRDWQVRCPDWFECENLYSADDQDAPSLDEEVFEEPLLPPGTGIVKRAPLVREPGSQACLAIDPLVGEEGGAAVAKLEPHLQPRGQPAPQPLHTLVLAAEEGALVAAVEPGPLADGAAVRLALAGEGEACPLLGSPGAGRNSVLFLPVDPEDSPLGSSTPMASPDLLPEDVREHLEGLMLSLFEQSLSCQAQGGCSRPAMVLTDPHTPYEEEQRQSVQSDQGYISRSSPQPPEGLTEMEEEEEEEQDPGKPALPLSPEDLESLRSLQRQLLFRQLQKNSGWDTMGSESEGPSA

T2: ACT1 residues 372-574 (wild type) (human, UniProt O43734-1 372-574)
T2 sequence: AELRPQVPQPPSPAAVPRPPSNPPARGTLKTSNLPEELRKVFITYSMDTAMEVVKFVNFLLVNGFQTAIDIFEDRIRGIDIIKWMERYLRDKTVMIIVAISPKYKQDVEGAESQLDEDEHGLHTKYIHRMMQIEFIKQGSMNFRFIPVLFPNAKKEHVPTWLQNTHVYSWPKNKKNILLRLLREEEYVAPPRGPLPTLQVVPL


Key:
[1] = target: T1, IL-17RA residues 361-866 (SEFIR domain …); assay: cryo-EM structure
[2] = target: T2, ACT1 residues 372-574 (wild type); assay: negative-stain EM
[3] = target: T2, ACT1 residues 372-574 (wild type); assay: SEC

Row | binding result [1] | Binder | other results
1 | binds | ACT1 residues 372-574 Y558F (domain or fragment) AELRPQVPQPPSPAAVPRPPSNPPARGTLKTSNLPEELRKVFITYSMDTAMEVVKFVNFLLVNGFQTAIDIFEDRIRGIDIIKWMERYLRDKTVMIIVAISPKYKQDVEGAESQLDEDEHGLHTKYIHRMMQIEFIKQGSMNFRFIPVLFPNAKKEHVPTWLQNTHVYSWPKNKKNILLRLLREEEFVAPPRGPLPTLQVVPL | –
2 | binds | IL-17RB residues 328-484 (SEFIR domain, as part of the IL-17RB-RA fusion) (domain or fragment) LLPPIKVLVVYPSEICFHHTICYFTEFLQNHCRSEVILEKWQKKKIAEMGPVQWLATQKKAADKVVFLLSNDVNSVCDGTCGKSEGSPSENSQDLFPLAFNLFCSDLRSQIHLHKYVVVYFREIDTKDDYNALSVCPKYHLMKDATAFCAELLHVKQ | –
3 | – | IL-17RC-RA fusion (IL-17RC residues 510-705, 3x(GGGS) linker, IL-17RA residues 361-866) (other) ARGRAALLLYSADDSGFERLVGALASALCQLPLRVAVDLWSRRELSAQGPVAWFHAQRRQTLQEGGVVVLLFSPGAVALCSEWLQDGVSGPGAHGPHDAFRASLSCVLPDFLQGRAPGSYVGACFDRLLHPDAVPALFRTVPVFTLPSQLPDFLGALQQPRAPRSGRLQERAEQVSRALQPALDSYFHPPGTPAPGGGGSGGGSGGGSYTDGLPAADLIPPPLKPRKVWIIYSADHPLYVDVVLKFAQFLLTACGTEVALDLLEEQAISEAGVMTWVGRQKQEMVESNSKIIVLCSRGTRAKWQALLGRGAPVRLRCDHGKPVGDLFTAAMNMILPDFKRPACFGTYVVCYFSEVSCDGDVPDLFGAAPRYPLMDRFEEVYFRIQDLEMFQPGRMHRVGELSGDNYLRSPGGRQLRAALDRFRDWQVRCPDWFECENLYSADDQDAPSLDEEVFEEPLLPPGTGIVKRAPLVREPGSQACLAIDPLVGEEGGAAVAKLEPHLQPRGQPAPQPLHTLVLAAEEGALVAAVEPGPLADGAAVRLALAGEGEACPLLGSPGAGRNSVLFLPVDPEDSPLGSSTPMASPDLLPEDVREHLEGLMLSLFEQSLSCQAQGGCSRPAMVLTDPHTPYEEEQRQSVQSDQGYISRSSPQPPEGLTEMEEEEEEEQDPGKPALPLSPEDLESLRSLQRQLLFRQLQKNSGWDTMGSESEGPSA | binding result [2]: binds
4 | – | IL-17RB-RA fusion (IL-17RB residues 328-484, 16-residue linker, IL-17RA residues 361-866) (other) LLPPIKVLVVYPSEICFHHTICYFTEFLQNHCRSEVILEKWQKKKIAEMGPVQWLATQKKAADKVVFLLSNDVNSVCDGTCGKSEGSPSENSQDLFPLAFNLFCSDLRSQIHLHKYVVVYFREIDTKDDYNALSVCPKYHLMKDATAFCAELLHVKQGGGSGGGSGGGSGGGSYTDGLPAADLIPPPLKPRKVWIIYSADHPLYVDVVLKFAQFLLTACGTEVALDLLEEQAISEAGVMTWVGRQKQEMVESNSKIIVLCSRGTRAKWQALLGRGAPVRLRCDHGKPVGDLFTAAMNMILPDFKRPACFGTYVVCYFSEVSCDGDVPDLFGAAPRYPLMDRFEEVYFRIQDLEMFQPGRMHRVGELSGDNYLRSPGGRQLRAALDRFRDWQVRCPDWFECENLYSADDQDAPSLDEEVFEEPLLPPGTGIVKRAPLVREPGSQACLAIDPLVGEEGGAAVAKLEPHLQPRGQPAPQPLHTLVLAAEEGALVAAVEPGPLADGAAVRLALAGEGEACPLLGSPGAGRNSVLFLPVDPEDSPLGSSTPMASPDLLPEDVREHLEGLMLSLFEQSLSCQAQGGCSRPAMVLTDPHTPYEEEQRQSVQSDQGYISRSSPQPPEGLTEMEEEEEEEQDPGKPALPLSPEDLESLRSLQRQLLFRQLQKNSGWDTMGSESEGPSA | binding result [3]: binds
